The DeepSol protein solubility set

Assay: soluble on expression in E. coli; label from the status in PepcDB or PDB records

Sequence | soluble on expression in E. coli
MSKIKIAIIGNGMVGHRFIEDLLDKADKDQFDITVFCEEPRIAYDRVHLSSYFSHHTAEELSLVREGFYEKQGVKVLVGERAITINRAEKVIHSNSGRSLYYDKLVMATGSYPWIPPIKGSEGQDCFVYRTIEDLNAIEACTRRSKRGAVIGGGLLGLEAAGALKSLGVETHVIEFAPVLMAEQLDPMGGDQLRQKIERMGVRVHTGKNTQEIVHSGQNSRKTMLFADGTQLEVDFIVFSTGIRPQDKLANQCGLATARRGGIAINDYCQTSDPDVYAIGECASWQERTFGLVAPGYKMAQVAADHLLGRENAFLGADMSAKLKLLGVDVGGIGDAHGRTEGARSYVYLDESKEIYKRLVVSADNKTLLGAVLVGDTTDYGNLLQLALNNITLPENPDSLILPAHAGNKPTIGVDSLPDSAQICSCFDVTKGDIIRAIGQGCQTVAALKSATKAGTGCGGCIPLVTQVLNAELSKQGIEVNNHLCEHFAYSRQELYHLIRVEGIKTFTELREKYGKGYGCEVCKPTVGSLLASCWNEYVLEPQHTPLQDTNDNFLGNIQKDGTYSIIPRSPGGEITPDGLLVVGQIAKEYNLYTKLTGSQRIGMFGAQKDDLPAIWARLIDAGFETGHAYAKALRMAKTCVGSTWCRFGVGDSVGFGVALEHRYKGIRAPHKIKFGISGCTRECAEAQGKDVGIIATENGWNLYVCGNGGMKPRHADLLAADLDEETLMRYLDRFMMFYIRTADKLQRTSVWLESLEGGIRYLQLVILEDKLGINDQLEAEIARLRDKVACEWKATVENPAAQVRFAHFINSSLRDPNVQVVREREQHRPARPDERIPVRVLELEDNA | not soluble
MTVQTSKNPQVDIAEDNAFFPSEYSLSQYTSPVSDLDGVDYPKPYRGKHKILVIAADERYLPTDNGKLFSTGNHPIETLLPLYHLHAAGFEFEVATISGLMTKFEYWAMPHKDEKVMPFFEQHKSLFRNPKKLADVVASLNADSEYAAIFVPGGHGALIGLPESQDVAAALQWAIKNDRFVISLCHGPAAFLALRHGDNPLNGYSICAFPDAADKQTPEIGYMPGHLTWYFGEELKKMGMNIINDDITGRVHKDRKLLTGDSPFAANALGKLAAQEMLAAYAGLEHHHHHH | soluble
MSLKLLIVENDRDTAAALTTSLVAQQFTVDTASDSRSALELAEATEYDLIVLDVMLPDENGIRLCRQLRTQNQQEPILLLTRKVNPADRIAGFEAGADDYITKPYELSELLARIRALLRRGSTVLTKVLCWGQLQLDPNNCEVMCQGKGLHLTPKEYKLLELFLRHPRRIFDRRTLLDRICSIDECPGEEAITTQIRGLRRKLQMAGLNSDPIETLYGLGYRLKSEGHHHHHH | not soluble
MAHHHHHHMMQPHSQTRAFYCCDDEDKEGTDELLGELLFGADGRRGTDLSSTRCPPPAAPPASLDIAAPASAAATGSGAELPRLRYSRPPPHLTQTTLDLGHAEPTMATRCLLCRMLYSPENDEDAALHRRFCRGGRLRRRDRGPYDAPSSFTGACRSRRARTETAASPLASLSSPAAVAVHMLEELNGAGLGHSPSPLVANTTATVRRGGPRRRESGARGVAKATYTATDTLNTAADATVSLCTCVLRPRSSSSSSPHLSSPLAVFRISLNACGVADSKGGCTALRLLELLDFTPVVLRAAAERDVAPQTASSSVLCGNVPVVPSVRDSAASTVHVVCVVDTVLRLLLCAVVGEPRSREQDPELCVERRADGATVCSTRRNFTHGDVAGLWVLSPAELSAAQTAWEKSTAAPFASTRQALEVFFGTRAGGGAPSSAQSHAAHVTEKAHERCQQAAGVALHALAQYLVYGSSLCPSRQLSYSQAALAAAERMGAGFMEQCLAVASSCYLAGATPTPREDVGELQPLYIHGDSDDGGSDSDDANEDAKGVIGE | not soluble
MQVRRAVLGAAHVERSLANLTPFNEEFQEMITRHAWGDIWTRPGLPRHTRSLVTIAMLIGMNRNEELKLHLRAAKNNGVSRDEIKEVIMQSAIYCGIPAANATFHLAESVWDELGVESQQASR | not soluble
MLRYLLLSMYLFYIKKRRCHHFFIIVNIILSVSMQNDNLPFKITACVYKIV | not soluble
ERVVINISGLRFETQLKTLAQFPETLLGDPKKRMRYFDPLRNEYFFDRNRPSFDAILYYYQSGGRLRRPVNVPLDIFSEEIRFYELGEEAMEMFREDEG | soluble
MTRPLIVAAVIGSALAWHGSAQAQHSQAVAPAEPCTPVVLIERTGTCYAQVDPRFVTTLYFPRMVTSAVSSDERYFRASIVDDSVIVRPARDIDADALGNLSITAGEMKVSIMLGVAGHSSEVLPQIDFRALSEAEVFDARVAAEAERLHQDVKREYERRHRELEGEVTREATQLVGERLLQRHEPVRIDAIARNDDNVIVRVERGVWVGHELYLFFTVQNRSGTPYRVTHVGVFEESEHRAVADAGRAGQVEFDSAAPLVAGLLGTVRVDQFGRGVVHVRDARGAAGRRMTLRVSEERGERPVSVGGLSWR | not soluble
GSMALTQVETEIVPVSVDGETLTVEAVRRVAEERATVDVPAESIAKAQKSREIFEGIAEQNIPIYGVTTGYGEMIYMQVDKSKEVELQTNLVRSHSAGVGPLFAEDEARAIVAARLNTLAKGHSAVRPIILERLAQYLNEGITPAIPEIGSLGASGDLAPLSHVASTLIGEGYVLRDGRPVETAQVLAERGIEPLELRFKEGLALINGTSGMTGLGSLVVGRALEQAQQAEIVTALLIEAVRGSTSPFLAEGHDIARPHEGQIDTAANMRALMRGSGLTVEHADLRRELQKDKEAGKDVQRSEIYLQKAYSLRAIPQVVGAVRDTLYHARHKLRIELNSANDNPLFFEGKEIFHGANFHGQPIAFAMDFVTIALTQLGVLAERQINRVLNRHLSYGLPEFLVSGDPGLHSGFAGAQYPATALVAENRTIGPASTQSVPSNGDNQDVVSMGLISARNARRVLSNNNKILAVEYLAAAQAVDISGRFDGLSPAAKATYEAVRRLVPTLGVDRYMADDIELVADALSRGEFLRAIARETDIQLR | soluble
MGSDKIHHHHHHMSNLQKVIVFGASGFLGEHIIKSLISENWDVYAAVRTKPESSTDGFNQTQVTYYEGDLEDQKYIQDAIAGMDAIIFSAGCTWKSDLEISEYYRRNVQITKNFFTALGDRPNVRIVYTSSMSVIAGSKSDYIFFEDSDRSQVSQNQLSPYDLAKIECEQIALDYAQRGNNLVILNPGNMLGPGVFNHSKITTSILVLWFCQKQFPFYINGGHSYCDVRDVAKAHVAALTRGRSGERYIVAGDNLDMASISSLLVKMTGFKMPQQLPASGVYLLSLLLESLSLLSFRLFKNPYHPDFVKSFALHYYANSQKAIKELAYNITPIETTLIDTIKYFGKRELLSEDLNFFALMTHSNIQSLIYLRQLASQHTFSQFLLSKISQIYGICQSNLSLNNVLDNLVNHSKFNIKTGKFQPDKTKCQEDLKSINQLFEYLYFASNDFLSEVI | not soluble
DFVGGTKMNMPAAQLETSEVADTFKDATGIEPELVQIVGSGDTRILEINSERLSEDQISQARVALFEKYQPVGSQGQPTPDAIGDSTVSESWGSTITQR | not soluble
MSLADRLTIGEFSRITHLSIRMLRRYHEQDLLVPAEVDPDTGYRYYSPAQIRPALTVRRFRDLDLPLADLRRFLAAESADGPDDGTAQQVVAAHLRRLEDRLGRTQRAVEVLRELLDPEAERAVTLEELPARRVLAVTLDVPEGAGLDWYDEAMCDVDSAAGERSVLPPGGRYEHTLFTEGHGRATVYVPFEAPLPPEMPGRVRELHLPRRTAAVATHQGRHDDLDLTYGAVGSFAARNDLRSQDLVEEVYLVGPRDTDRPELWRTLVAWLIAPENEGHHHHHH | soluble
MKIALINENSQASKNHIIYDSLKEATDKKGYQLFNYGMRGEEGESQLTYVQNGLMAAILLNTKAVDFVVTGCGTGVGAMLALNSFPGVVCGLAVDPTDAYLYSQINGGNALSIPYAKGFGWGAELTLKLMFERLFAEEMGGGYPRERVIPEQRNARILNEVKQITHNDLMTILKIIDQDFLKDTISGKYFQEYFFENCQDDEVAAYLKEVLAK | soluble
MGSDKIHHHHHHPSEEVAKSGNPVFEGWYADPEGIIYGDTYWIYPTTSDLYEKQTFFDCFSSKDLVSWTKHTAILDTAEVKWAKIAMWAPSVINKDGKYYLFFGANDVHEGEIGGIGVAVSDRPEGPYKDLLGKPLINEIVNGAQPIDQFVFHDADNDEYYMYYGGWKHCNMVRLNKDFTGLIPFEDGTIYKEVTPKDYVEGPFMFKKNGKYYFMWSEGGWTGPDYKVAYAISDSPFGPFNRIGEVLRQNFDMANGAGHHSIMHVPNSEDYYIVYHRRPAGVKTRDHRETCIEKMTFNEEGLINPVEITTEGVEARTIQ | not soluble
MGSDKIHHHHHHKDEIKHLVSEWQGKEIRFPKDMVFARFATDTVDFTLPKSPHKVLVFVDSIGCTSCKLQLHRWKELIQYTDSITQGTVPFLFFFQSDDKKEIRYLLKKDNFDKPICMDQSDRLNELNHFPADGRFQTFLLDKDNKVVVIGNPIHNPNIRELYLKEITGKQPASQIQTTVKVEEASIQLGTIQMGESKEAVFRLTNTGNNPLVILDAATTCGCARPSFDKHPAKPGEILQVRVIMTPKDKGVFDETISVKCNTNQLIKLNIRGMAQ | not soluble
MGSDKIHHHHHHMPGWAGYYLEFHGNAYSAPFSADIYINVAYPYDGKLVELGGSILGHNQYFYVKSPYTFPDNVHNVDGYVVEWFDEDWQKWVLWHVSYKPALQVIGCPYVSTWNGIEYVPENTVLVESEILKPRKHMDLTDYYLINNSHTIRENIYSIQLQEFEQDTSYIDSIELLVVDYPQGLELSLDPQGNIVLYIPIHTRLNTRFTTEIASSNVNRLKTDLVIVSPYVKTSYSFKVNKVYENKSVESIHLYPRMFPYRYALFTDKDISKLKMELNDHKLYSIEYGIPVNASYHIVKEKPLLATSDIGGEITEELLEDDGHYAVLTPGDNITLNFKVPPALSSRMKRALILVIKGFYVQKPPTLTKDAVRVIYVPEINGYLFVPLLETYDEILSIMWDFGDGTTSDFFVPFHVYKQGKYKGSLKVKYLNGKTLTIPFYWGG | not soluble
MELRIGFGFDSHEFVEGKLLILGGVEIEKDYGLKGHSDGDALLHAITDAILGALGERDIGEIFKDTDPRWKNAPSRIFLEKALEVMSEKGFNISNIDCVIVADRPKIAPHKERIKESLSKLLGIPKERISLKGKRREGFCEGNGLVCMCTVLLVKMLEHHHHHH | soluble
MNTPHPSAPVLVAVANPTIHPEALHIVAATGRECIDTTDPREISRHAHRVAAMLVDATTAPHMASLPPNTRVMYLEPEPGPIDYEKAMKSGAELAVIVPAQSPELLKALGRRDVAPRAGKYPVIAVIGAAGGAGTSTLCAALAADYREALLIDTEHFSGGIDLLLGKEDDPGIRWDDVPDSGEKVPASELLASLPCVDPNVRILAATRDSVTHVAEQQLRGVVESVRGTCPIIIDVQRHHVLFESCVDLADLVVLLVPAEIRSVAAAAQLVPWLRRRKVDVVGVLRERAWASVDREEVARVTGADIVATVPTVKGLPREVELGGMATIPRALRRPLAQLRSHIDG | not soluble
MGSDKIHHHHHHIEAQIKEDLDLIRNGTSLLSLIPNFGMEAVTPWLDEFERGLMYELDFKREIKNIAFFRDMYRDRDDVKIPRPYSRLSTEDVIVMDYTPSVPIVRPFKAERLINMFLEQLLYEGVIHGDLHTGNIGLDSKTGSLVLYDFGNIINITSQYKTAIRDFVYGVQTGNVDAVMDNMVKMGMNVRDREVTRIFVKQYFDYLQTLDLTSFTINSPEIREKASKVPVELDSTTLTILRTYSLLEGLAKELDPSFSYARIINKNVELLFLDLEYIMYRIQKDTSS | not soluble
